The values below come from US20020034770A1, “COMPOUNDS THAT INTERFERE WITH DNA REPLICATION IN RAPIDLY PRO[…] FOR USE IN CANCER THERAPY AND METHODS FOR SCREENING FOR SUCH COMPOUNDS” (priority 1996, published 2002).

In this data set the target is T1, Cdc6-associated kinase (Clb/Cdk1 kinases) (Saccharomyces cerevisiae, UniProt P00546).
T1 construct: 1 mg of protein extract from K4527, grown in YEPR at 25° C. or induced for 4 hours in YEPRG, was immunoprecipitated with 12CA5 Ab; endogenous in cells; host or cells: S. cerevisiae strain K4527 (W303 background, wild type, 5 copies of GAL-HA3CDC6); The kinase is endogenous; Only the Cdc6 bait is expressed from an introduced construct
The data set is described as follows: Histone H1 kinase assay of Cdc6-associated kinase immunoprecipitated with 12CA5 Ab. It counts as biochemical. The settings on record: HA3Cdc6 immunoprecipitate from K4527 extract (GAL-HA3CDC6, induced 4 hours in YEPRG); FIG. 5D. On the procedure: Protein extracts were prepared as in Schwob et al., 1994. For Clb2 kinase assays, […] of total proteins were immunoprecipitated using anti-Clb2 Ab (1:30, Amon et al., 1992). To assay Cdc6-associated kinase, HA3Cdc6 or Cdc6HA3 was immunoprecipitated with 12CA5 Ab (1:10) from the amounts of protein extracts indicated in figure legends. Histone Hi kinase activity was measured as previously described (Schwob et al., 1994).
D) Cdc6-associated kinase is inhibited by p40^SIC1. 1 mg of protein extract from K4527, grown in YEPR at 25° C. or induced for 4 hours in YEPRG, was immunoprecipitated with 12CA5 Ab and before the last washing step split into four aliquots. Kinase activity was measured in the absence or in the presence of the indicated amounts of purified p40^SIC1. R:Raffinose. G: Galactose. The addition of p40^SIC1 causes the appearance of two additional signals probably due to phosphorylation of p40^SIC1 by an aspecific kinase. E) Cdc28p co-immunoprecipitates with Cdc6p. Cdc6p was immunoprecipitated with 12CA5 Ab from protein extracts (5 mg) of K4527 cells grown at 25° C. in YEPR and induced for 4 hours in YEPRG. Protein A-Sepharose beads were boiled in SDS buffer and analysed by Western blot using Cdc28 Ab (1:500) ([…]. R: Raffinose. G: Galactose).

T1 sequence (P00546 whole entry): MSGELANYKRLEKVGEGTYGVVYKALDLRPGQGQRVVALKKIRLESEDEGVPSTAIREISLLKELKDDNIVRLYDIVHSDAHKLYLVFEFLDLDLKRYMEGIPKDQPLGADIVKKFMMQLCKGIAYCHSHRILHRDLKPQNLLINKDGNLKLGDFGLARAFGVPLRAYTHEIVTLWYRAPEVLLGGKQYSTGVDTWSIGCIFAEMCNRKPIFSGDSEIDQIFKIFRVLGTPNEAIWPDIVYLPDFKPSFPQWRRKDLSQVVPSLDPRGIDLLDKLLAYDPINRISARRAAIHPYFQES

B1: p40^SIC1: purified Clb-specific Cdk inhibitor protein of budding yeast, encoded by SIC1 (protein, UniProt P38634 1-284, looked up)
Protein SIC1: MTPSTPPRSRGTRYLAQPSGNTSSSALMQGQKTPQKPSQNLVPVTPSTTKSFKNAPLLAPPNSNMGMTSPFNGLTSPQRSPFPKSSVKRTLFQFESHDNGTVREEQEPLGRVNRILFPTQQNVDIDAAEEEEEGEVLLPPSRPTSARQLHLSLERDEFDQTHRKKIIKDVPGTPSDKVITFELAKNWNNNSPKNDARSQESEDEEDIIINPVRVGKNPFASDELVTQEIRNERKRAMLRENPDIEDVITYVNKKGEVVEKRRLTDEEKRRFKPKALFQSRDQEH
With B1, the “Cdc6-associated histone H1 kinase activity on addition of purified p40^SIC1” value is recorded as “inhibited”.
